Four substances from publication PMC3108429 can be followed below.

Experiment [1] concerns the target taxol-stabilized microtubules. Briefly: bead binding to microtubules counted by DIC microscopy.
For experiment [2], the target named is dynamic microtubules grown from GMPCPP-stabilized microtubule seeds (bovine). Briefly: constant-force laser trap bead motility assay.

“Dsn1-HIS-FLAG kinetochore particles from the dad1-1 mutant strain (from UniProt P40568 1-576; Q12248 1-94) (complex)”: in experiment [1], the microtubule-bound beads per field (beads per field) came out at 18.

As to “Dsn1-HIS-FLAG kinetochore particles from the ndc80-1 mutant strain (from UniProt P40568 1-576; P40460 1-691) (complex)”, in experiment [1], the microtubule-bound beads per field (beads per field) was 2.

With “Dsn1-HIS-FLAG kinetochore particles from the spc105-15 mutant strain (from UniProt P40568 1-576; P53148 1-917) (complex)”, the microtubule-bound beads per field (beads per field) in experiment [1] was 4.

In experiment [1], “Dsn1-HIS-FLAG kinetochore particles from wild-type cells (from UniProt P40568 1-576) (complex)” came in with a microtubule-bound beads per field (beads per field) of 22. In experiment [2], this substance returned a mean attachment lifetime at 1 pN tension of 21 min and a mean attachment lifetime at 5 pN tension of 50 min.
